Laboratory results reported in patent CN116284426A (SUNSHINE GUOJIAN PHARMACEUTICAL SHANGHAI CO LTD, dated 2023).

Experiments:
CD3ε-ECD-his [1] = target: T1, CD3ε-ECD-his (UniProt P07766 23-126); assay: ELISA, CD3ε-ECD-his coated at 1 ug/mL (Table 19)
T1 construct: extracellular domain; also called CD3ε蛋白

[2] = target: T2, GUCY2C-Fc蛋白 (human GUCY2C extracellular region fused to human IgG1 Fc) (human, UniProt P25092 24-430); assay: ELISA, GUCY2C-Fc coated, anti-human IgG Fab HRP (Table 18)
T2 construct: extracellular domain; Made in HEK-293F with an unspecified N-terminal signal peptide; also called 人GUCY2C-Fc蛋白; not shown: human IgG1 Fc at the C-terminus in place of the 6xHis tag

CD3ε-ECD-his [3] = target: T1, CD3ε-ECD-his; assay: ELISA, CD3ε-ECD-his coated; reference SP34
[4] = target: T3, GUCY2C-His蛋白 (human GUCY2C extracellular region with C-terminal 6xHis) (human, UniProt P25092 24-430); assay: ELISA, GUCY2C-His coated, anti-human IgG Fab HRP (Table 17)
T3 construct: extracellular domain; Made in HEK-293F with an unspecified N-terminal signal peptide; also called 人GUCY2C-His蛋白

[5] = target: GUCY2C on tumour cells (CW2, CW2-GCC#1, T84) (human, UniProt P25092 24-1073); assay: cell-based or functional assay
[6] = target: T3, GUCY2C-His蛋白 (human GUCY2C …); assay: ELISA, GUCY2C-His coated, anti-human IgG Fab HRP (Table 10)
CD3ε-ECD-his [7] = target: T1, CD3ε-ECD-his; assay: ELISA, CD3ε-ECD-his coated at 1 ug/mL, anti-human IgG Fab HRP (Table 14)
[8] = target: T2, GUCY2C-Fc蛋白 (human GUCY2C extracellular …); assay: ELISA, GUCY2C-Fc coated, anti-human IgG Fab HRP (Table 12)

T1 sequence (P07766 other isoform, or with tags, fused parts or gaps): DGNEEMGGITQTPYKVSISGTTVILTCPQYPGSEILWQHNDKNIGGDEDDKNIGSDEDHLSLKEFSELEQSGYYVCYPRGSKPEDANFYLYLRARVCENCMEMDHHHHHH
T2 sequence (P25092 24-430 limits assumed): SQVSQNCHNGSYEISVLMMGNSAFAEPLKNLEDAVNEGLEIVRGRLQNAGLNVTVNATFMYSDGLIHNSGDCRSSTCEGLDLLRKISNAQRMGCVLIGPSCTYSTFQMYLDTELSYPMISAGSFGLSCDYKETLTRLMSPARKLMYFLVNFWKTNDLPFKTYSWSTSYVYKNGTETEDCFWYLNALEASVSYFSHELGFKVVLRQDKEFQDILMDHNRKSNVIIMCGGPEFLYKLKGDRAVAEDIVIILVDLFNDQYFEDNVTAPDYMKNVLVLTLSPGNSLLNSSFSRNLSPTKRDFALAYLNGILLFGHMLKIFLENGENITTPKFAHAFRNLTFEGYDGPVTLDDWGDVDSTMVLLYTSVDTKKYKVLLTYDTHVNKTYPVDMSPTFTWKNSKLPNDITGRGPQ
T3 sequence (P25092 other isoform, or with tags, fused parts or gaps): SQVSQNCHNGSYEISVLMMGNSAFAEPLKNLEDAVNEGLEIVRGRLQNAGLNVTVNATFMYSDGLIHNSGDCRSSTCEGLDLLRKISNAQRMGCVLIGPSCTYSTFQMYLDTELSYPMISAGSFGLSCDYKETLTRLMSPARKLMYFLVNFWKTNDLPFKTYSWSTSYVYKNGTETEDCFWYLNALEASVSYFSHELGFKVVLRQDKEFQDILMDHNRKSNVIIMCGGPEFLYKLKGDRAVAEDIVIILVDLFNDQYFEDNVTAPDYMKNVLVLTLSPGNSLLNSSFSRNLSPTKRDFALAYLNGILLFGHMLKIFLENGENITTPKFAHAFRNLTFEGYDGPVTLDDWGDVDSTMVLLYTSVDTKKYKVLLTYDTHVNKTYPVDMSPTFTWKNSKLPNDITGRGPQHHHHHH
Chain of GUCY2C on tumour cells (CW2, CW2-GCC#1, T84) (P25092 24-1073): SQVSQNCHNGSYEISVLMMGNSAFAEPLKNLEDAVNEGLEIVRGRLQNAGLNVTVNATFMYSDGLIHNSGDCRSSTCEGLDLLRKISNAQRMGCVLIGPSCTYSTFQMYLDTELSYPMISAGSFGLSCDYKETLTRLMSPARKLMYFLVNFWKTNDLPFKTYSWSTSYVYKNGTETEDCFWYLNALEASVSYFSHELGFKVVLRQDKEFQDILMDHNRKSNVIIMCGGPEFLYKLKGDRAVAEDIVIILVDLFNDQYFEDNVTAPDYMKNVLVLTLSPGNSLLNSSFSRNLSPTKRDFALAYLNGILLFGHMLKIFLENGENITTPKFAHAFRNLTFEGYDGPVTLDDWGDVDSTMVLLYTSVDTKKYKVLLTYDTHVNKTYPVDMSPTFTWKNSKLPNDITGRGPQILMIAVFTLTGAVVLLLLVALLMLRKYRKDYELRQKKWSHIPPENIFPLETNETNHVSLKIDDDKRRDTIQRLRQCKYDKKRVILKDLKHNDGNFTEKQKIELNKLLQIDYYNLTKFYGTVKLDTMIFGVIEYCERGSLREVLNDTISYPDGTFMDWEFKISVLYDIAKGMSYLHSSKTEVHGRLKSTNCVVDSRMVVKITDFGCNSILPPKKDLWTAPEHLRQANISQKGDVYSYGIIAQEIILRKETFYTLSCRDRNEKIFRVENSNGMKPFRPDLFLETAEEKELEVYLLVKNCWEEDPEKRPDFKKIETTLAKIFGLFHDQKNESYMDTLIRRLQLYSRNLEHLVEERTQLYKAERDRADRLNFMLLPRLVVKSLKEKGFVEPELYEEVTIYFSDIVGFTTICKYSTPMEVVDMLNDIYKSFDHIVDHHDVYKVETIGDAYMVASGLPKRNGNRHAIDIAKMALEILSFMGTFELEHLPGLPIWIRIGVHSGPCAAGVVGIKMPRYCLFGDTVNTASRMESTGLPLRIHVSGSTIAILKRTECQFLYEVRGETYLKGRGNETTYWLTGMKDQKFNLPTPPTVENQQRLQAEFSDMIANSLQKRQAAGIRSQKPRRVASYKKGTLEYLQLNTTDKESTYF

Row | Binder | EC50 (CD3ε-ECD-his [1]) [nM] | EC50 [2] [nM] | fold weaker affinity than SP34 (CD3ε-ECD-his [3]) [fold] | EC50 [4] [nM] | EC50 [6] [nM] | EC50 (CD3ε-ECD-his [7]) [nM] | EC50 [8] [nM] | IC50 of T-cell-mediated killing of T84 cells [5] [nM]
1 | 32H2CH1-SP4VHL-hik (bispecific antibody, human IgG1, kappa, also called 结构8) heavy 1: EVQLVESGGGLVKPGGSLRLSCAASGFSFRTYAMSWVRQAPGKSLEWVATISSGSSYIYYPDSVKGRFTVSRDNAKNSLYLQMNSLRAEDTAVYYCTCYRMETFEYWGQGTLVTVSSASTKGPSVFPLAPSSKSTSGGTAALGCLVKDYFPEPVTVSWNSGALTSGVHTFPAVLQSSGLYSLSSVVTVPSSSLGTQTYICNVNHKPSNTKVDKKVEPKSCGGGGSGGGGSGGGGSEVQLVESGGGLVQPGGSLRLSCAASGFTFNTYAMNWVRQAPGKGLEWVARIRSKYNNYATYYADSVKDRFTISRDDSKNTLYLQMNSLRAEDTAVYYCVRHGNFGNSYVSWFAYWGQGTLVTVSSGGGGSGGGGSGGGGSGGGGSQAVVTQEPSLTVSPGGTVTLTCRSSTGAVTTSNYANWVQQKPGQAPRGLIGGTNKRAPGVPARFSGSLLGGKAALTLSGAQPEDEAEYYCALWYSNLWVFGQGTKVEIKGGGSDKTHTCPPCPAPELLGGPSVFLFPPKPKDTLMISRTPEVTCVVVDVSHEDPEVKFNWYVDGVEVHNAKTKPREEQYNSTYRVVSVLTVLHQDWLNGKEYKCKVSNKALPAPIEKTISKAKGQPREPQVYTLPPCREEMTKNQVSLSCAVKGFYPSDIAVEWESNGQPENNYKTTPPVLDSDGSFFLVSKLTVDKSRWQQGNVFSCSVMHEALHNHYTQKSLSLSPGK heavy 2: not shown light: DVVMTQSPLSLPVTLGQPASISCRSSQSLVYNNGNTYLHWYQQRPGQSPRLLIYKVSNRFSGVPDRFSGSGSGTDFTLKISRVEAEDVGVYFCSQSTHVPLTFGQGTKVEIKRTVAAPSVFIFPPSDEQLKSGTASVVCLLNNFYPREAKVQWKVDNALQSGNSQESVTEQDSKDSTYSLSSTLTLSKADYEKHKVYACEVTHQGLSSPVTKSFNRGEC | 1.92 | 0.869 | ~10 | 0.428 | – | – | – | 0.002
2 | 32H2-SP4VHL (bispecific antibody, human IgG1, kappa, also called 结构1) heavy: not shown light: DVVMTQSPLSLPVTLGQPASISCRSSQSLVYNNGNTYLHWYQQRPGQSPRLLIYKVSNRFSGVPDRFSGSGSGTDFTLKISRVEAEDVGVYFCSQSTHVPLTFGQGTKVEIKRTVAAPSVFIFPPSDEQLKSGTASVVCLLNNFYPREAKVQWKVDNALQSGNSQESVTEQDSKDSTYSLSSTLTLSKADYEKHKVYACEVTHQGLSSPVTKSFNRGEC | – | – | – | – | 0.26 | 0.3 | 0.29 | –
3 | 32H2CH1-SP4VHL-KIH (bispecific antibody, human IgG1, kappa, also called 结构9) heavy 1: not shown heavy 2: EVQLVESGGGLVKPGGSLRLSCAASGFSFRTYAMSWVRQAPGKSLEWVATISSGSSYIYYPDSVKGRFTVSRDNAKNSLYLQMNSLRAEDTAVYYCTCYRMETFEYWGQGTLVTVSSASTKGPSVFPLAPSSKSTSGGTAALGCLVKDYFPEPVTVSWNSGALTSGVHTFPAVLQSSGLYSLSSVVTVPSSSLGTQTYICNVNHKPSNTKVDKKVEPKSCDKTHTCPPCPAPELLGGPSVFLFPPKPKDTLMISRTPEVTCVVVDVSHEDPEVKFNWYVDGVEVHNAKTKPREEQYNSTYRVVSVLTVLHQDWLNGKEYKCKVSNKALPAPIEKTISKAKGQPREPQVYTLPPCREEMTKNQVSLSCAVKGFYPSDIAVEWESNGQPENNYKTTPPVLDSDGSFFLVSKLTVDKSRWQQGNVFSCSVMHEALHNHYTQKSLSLSPGK light: DVVMTQSPLSLPVTLGQPASISCRSSQSLVYNNGNTYLHWYQQRPGQSPRLLIYKVSNRFSGVPDRFSGSGSGTDFTLKISRVEAEDVGVYFCSQSTHVPLTFGQGTKVEIKRTVAAPSVFIFPPSDEQLKSGTASVVCLLNNFYPREAKVQWKVDNALQSGNSQESVTEQDSKDSTYSLSSTLTLSKADYEKHKVYACEVTHQGLSSPVTKSFNRGEC | 1.31 | 0.681 | ~10 | 0.264 | – | – | – | 0.366

Further lines, with some results ahead:

Row | EC50 (CD3ε-ECD-his [1]) [nM] | EC50 [2] [nM] | fold weaker affinity than SP34 (CD3ε-ECD-his [3]) [fold] | EC50 [4] [nM] | EC50 [6] [nM] | EC50 (CD3ε-ECD-his [7]) [nM] | EC50 [8] [nM] | Binder | IC50 of T-cell-mediated killing of T84 cells [5] [nM]
4 | 0.154 | – | – | – | – | – | – | SP34 (humanized anti-CD3 monoclonal antibody) (antibody, human IgG1, kappa, V domains shown, Full-length humanized IgG1/kappa made in HEK293F and purified on Protein A; also called SP34-HC/SP34-LC) VH: EVQLVESGGGLVQPGGSLRLSCAASGFTFNTYAMNWVRQAPGKGLEWVARIRSKYNNYATYYADSVKDRFTISRDDSKNTLYLQMNSLRAEDTAVYYCVRHGNFGNSYVSWFAYWGQGTLVTVSS VL: QAVVTQEPSLTVSPGGTVTLTCRSSTGAVTTSNYANWVQQKPGQAPRGLIGGTNKRAPGVPARFSGSLLGGKAALTLSGAQPEDEAEYYCALWYSNLWVFGQGTKVEIKR | –
5 | 2.37 | 0.752 | ~10 | 0.405 | – | – | – | SP4VHL-32H2-KIH (bispecific antibody) chain 1: not shown chain 2: EVQLVESGGGLVKPGGSLRLSCAASGFSFRTYAMSWVRQAPGKSLEWVATISSGSSYIYYPDSVKGRFTVSRDNAKNSLYLQMNSLRAEDTAVYYCTCYRMETFEYWGQGTLVTVSSASTKGPSVFPLAPSSKSTSGGTAALGCLVKDYFPEPVTVSWNSGALTSGVHTFPAVLQSSGLYSLSSVVTVPSSSLGTQTYICNVNHKPSNTKVDKKVEPKSCDKTHTCPPCPAPELLGGPSVFLFPPKPKDTLMISRTPEVTCVVVDVSHEDPEVKFNWYVDGVEVHNAKTKPREEQYNSTYRVVSVLTVLHQDWLNGKEYKCKVSNKALPAPIEKTISKAKGQPREPQVYTLPPCREEMTKNQVSLSCAVKGFYPSDIAVEWESNGQPENNYKTTPPVLDSDGSFFLVSKLTVDKSRWQQGNVFSCSVMHEALHNHYTQKSLSLSPGK chain 3: DVVMTQSPLSLPVTLGQPASISCRSSQSLVYNNGNTYLHWYQQRPGQSPRLLIYKVSNRFSGVPDRFSGSGSGTDFTLKISRVEAEDVGVYFCSQSTHVPLTFGQGTKVEIKRTVAAPSVFIFPPSDEQLKSGTASVVCLLNNFYPREAKVQWKVDNALQSGNSQESVTEQDSKDSTYSLSSTLTLSKADYEKHKVYACEVTHQGLSSPVTKSFNRGEC | –
6 | 4.02 | 1.08 | ~10 | 0.733 | – | – | – | SP4VHL-32H2-hik (bispecific antibody) chain 1: EVQLVESGGGLVQPGGSLRLSCAASGFTFNTYAMNWVRQAPGKGLEWVARIRSKYNNYATYYADSVKDRFTISRDDSKNTLYLQMNSLRAEDTAVYYCVRHGNFGNSYVSWFAYWGQGTLVTVSSGGGGSGGGGSGGGGSGGGGSQAVVTQEPSLTVSPGGTVTLTCRSSTGAVTTSNYANWVQQKPGQAPRGLIGGTNKRAPGVPARFSGSLLGGKAALTLSGAQPEDEAEYYCALWYSNLWVFGQGTKVEIKGGGGSGGGGSGGGGSEVQLVESGGGLVKPGGSLRLSCAASGFSFRTYAMSWVRQAPGKSLEWVATISSGSSYIYYPDSVKGRFTVSRDNAKNSLYLQMNSLRAEDTAVYYCTCYRMETFEYWGQGTLVTVSSASTKGPSVFPLAPSSKSTSGGTAALGCLVKDYFPEPVTVSWNSGALTSGVHTFPAVLQSSGLYSLSSVVTVPSSSLGTQTYICNVNHKPSNTKVDKKVEPKSCDKTHTCPPCPAPELLGGPSVFLFPPKPKDTLMISRTPEVTCVVVDVSHEDPEVKFNWYVDGVEVHNAKTKPREEQYNSTYRVVSVLTVLHQDWLNGKEYKCKVSNKALPAPIEKTISKAKGQPREPQVYTLPPCREEMTKNQVSLSCAVKGFYPSDIAVEWESNGQPENNYKTTPPVLDSDGSFFLVSKLTVDKSRWQQGNVFSCSVMHEALHNHYTQKSLSLSPGK chain 2: not shown chain 3: DVVMTQSPLSLPVTLGQPASISCRSSQSLVYNNGNTYLHWYQQRPGQSPRLLIYKVSNRFSGVPDRFSGSGSGTDFTLKISRVEAEDVGVYFCSQSTHVPLTFGQGTKVEIKRTVAAPSVFIFPPSDEQLKSGTASVVCLLNNFYPREAKVQWKVDNALQSGNSQESVTEQDSKDSTYSLSSTLTLSKADYEKHKVYACEVTHQGLSSPVTKSFNRGEC | –
7 | – | – | – | – | 1.21 | 1.16 | 0.78 | SP4VHL-32H2-L (bispecific antibody, human IgG1, kappa, also called 结构18) heavy: not shown light: EVQLVESGGGLVQPGGSLRLSCAASGFTFNTYAMNWVRQAPGKGLEWVARIRSKYNNYATYYADSVKDRFTISRDDSKNTLYLQMNSLRAEDTAVYYCVRHGNFGNSYVSWFAYWGQGTLVTVSSGGGGSGGGGSGGGGSGGGGSQAVVTQEPSLTVSPGGTVTLTCRSSTGAVTTSNYANWVQQKPGQAPRGLIGGTNKRAPGVPARFSGSLLGGKAALTLSGAQPEDEAEYYCALWYSNLWVFGQGTKVEIKGGGGSGGGGSGGGGSDVVMTQSPLSLPVTLGQPASISCRSSQSLVYNNGNTYLHWYQQRPGQSPRLLIYKVSNRFSGVPDRFSGSGSGTDFTLKISRVEAEDVGVYFCSQSTHVPLTFGQGTKVEIKRTVAAPSVFIFPPSDEQLKSGTASVVCLLNNFYPREAKVQWKVDNALQSGNSQESVTEQDSKDSTYSLSSTLTLSKADYEKHKVYACEVTHQGLSSPVTKSFNRGEC | –
